The text below walks through data of article PMC3798644, “Molecular Basis for Oligomeric-DNA Binding and Episome Maintenance by KSHV LANA” (PLoS Pathogens, 2013).

A word on the stoichiometry N: it is the number of molecules, sites or subunits per partner or assembly.

Sequences and labels used below:
B1: LANA C-terminal DNA binding domain (residues 1011-1153), wild type (domain or fragment)
chain: HPRYQQPPVPYRQIDDCPAKARPQHIFYRRFLGKDGRRDPKCQWKFAVIFWGNDPYGLKKLSQAFQFGGVKAGPVSCLPHPGPDQSPITYCVYVYCQNKDTSKKVQMARLAWEASHPLAGNLQSSIVKFKKPLPLTQPGENQG
notes: source: E. coli, purified (Ni-NTA, tag cleaved with ULP1, second Ni-NTA, Superdex 75)

Series [1] deals with the molecule itself. Briefly: cross-linking; EGS, without DNA; 200 mM NaCl, 20 mM HEPES pH 7.4, 1 mM DTT, room temperature; samples boiled and run on gels.
Series [2] concerns the molecule itself. Put plainly: cross-linking; EGS, with a 1.2 molar excess of LBS1 DNA (unlabeled 21-mer); 200 mM NaCl, 20 mM HEPES pH 7.4, 1 mM DTT, room temperature; step: dimers and tetramers to higher oligomers.
Series [3] has as its target T1, His-SMT3-BRD2 ET domain, long form (BRD2 633-801) (UniProt P25440 633-801).
T1 construct: also called BRD2L
Briefly: pull-down; His-SMT3-BRD ET domain held on Ni-NTA resin; untagged LANADBD or EBNA1DBD added; 200 mM NaCl, 20 mM HEPES, 5 mM BME, pH 8.0; washed with 10 CV; eluted with 300 mM imidazole. As to conditions: both partners purified.

Series [4] concerns the target B1. The series is described as above. Conditions: both partners purified.
For series [5], the target named is T2, LANA DBD wild-type (KSHV (HHV-8), UniProt Q9DUN0 825-967).
T2 sequence: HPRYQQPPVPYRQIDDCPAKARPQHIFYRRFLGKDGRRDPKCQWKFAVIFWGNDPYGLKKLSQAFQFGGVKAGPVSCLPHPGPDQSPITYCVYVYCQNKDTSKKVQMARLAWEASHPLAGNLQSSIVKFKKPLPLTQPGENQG
Put plainly: fluorescence polarization; cooperative, Hill h > 1; Kd only in figure; FP: 200 mM NaCl, 20 mM HEPES, 1 mM DTT, (protein stock pH 7.4), 1 ug/mL BSA, 0.1 ug/mL poly(dA:dT), 0.001% Tween 20, 1 nM probe, room temperature 30 min; EMSA:
Conditions: protein: recombinant; tags: His-SMT3 removed by ULP1; chain copies: 2; label: 5' 6-carboxyfluorescein; blunt. (In fluorescence polarisation assays a small probe gives low polarisation when free and higher when bound to something large.)

In the case of B1, the results for the “stoichiometry N” value in series [1] and in series [2] were 4 and approximately 10, respectively. The binding result in series [3] was “binds”.

B2: His-SMT3-BRD2 ET domain, short form (BRD2 633-714) (domain or fragment, UniProt P25440 633-714, looked up)
chain: SEEEEESRPMSYDEKRQLSLDINKLPGEKLGRVVHIIQAREPSLRDSNPEEIEIDFETLKPSTLRELERYVLSCLRKKPRKP
notes: also called BRD2S
For the molecule B2, the binding result in series [4] is listed as “binds”.

B3: LBS1 21-mer FP probe (dsDNA)
DNA 1: AGCGGCCCCATGCCCGGGCGG
DNA 2: CCGCCCGGGCATGGGGCCGCT
With B3, in series [5], the binding result is reported as “binds”.
